From PMC5026484 (eLife, 2016) come the findings set out here.

Series [1] deals with the molecule itself. The series can be described thus: crystal structure; X-ray; sitting/hanging-drop vapour diffusion, 20°C; data from beamline X10SA, SLS.
Series [2] addresses T1, Rab10, full length, loaded with GppNHp (human, UniProt P61026 1-200).
T1 construct: Rab10, human; Rab10Fl in the crystallisation methods; also called Rab10Fl; source: expressed and purified as described previously (Bleimling et al., 2009), loaded with GppNHp, gel filtration
T1 sequence (looked up): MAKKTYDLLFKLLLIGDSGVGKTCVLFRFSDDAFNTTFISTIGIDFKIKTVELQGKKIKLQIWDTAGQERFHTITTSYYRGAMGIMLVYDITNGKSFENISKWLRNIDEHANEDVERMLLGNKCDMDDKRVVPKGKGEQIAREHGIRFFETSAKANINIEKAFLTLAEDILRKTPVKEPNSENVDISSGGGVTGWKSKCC
As to the kind of experiment: SEC; analytical size exclusion chromatography, Superdex S75 10/300 GL; 130 µM Rab:GppNHp + 112.5 µM (113 µM) bMERB domain; 20 mM Hepes pH 7.5, 50 mM NaCl, 2 mM DTE, 2 mM MgCl2. To be noted: both partners purified.

For series [3], the target named is T2, Rab8a, full length, loaded with GppNHp (human, UniProt P61006 1-207).
T2 construct: Rab8a, human; called Rab8 in the results and Rab8aFl in the crystallisation methods; also called Rab8aFl; source: expressed and purified as described previously (Bleimling et al., 2009), loaded with GppNHp, gel filtration
T2 sequence (looked up): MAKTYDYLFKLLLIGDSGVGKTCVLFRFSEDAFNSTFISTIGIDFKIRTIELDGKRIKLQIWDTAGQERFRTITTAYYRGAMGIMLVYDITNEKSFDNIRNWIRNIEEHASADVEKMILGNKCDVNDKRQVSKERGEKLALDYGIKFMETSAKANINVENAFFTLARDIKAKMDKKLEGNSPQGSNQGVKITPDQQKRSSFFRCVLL
Described as above. To be noted: both partners purified.

The next series deals with T3, Rab10 residues 1-175 (human, UniProt P61026 1-175).
T3 construct: Rab10, human, residues 1-175; Used for the crystal of the 2:1 complex with Mical-1 918-1067; also called Rab10_(1-175); source: expressed and purified as described previously (Bleimling et al., 2009)
T3 sequence (looked up): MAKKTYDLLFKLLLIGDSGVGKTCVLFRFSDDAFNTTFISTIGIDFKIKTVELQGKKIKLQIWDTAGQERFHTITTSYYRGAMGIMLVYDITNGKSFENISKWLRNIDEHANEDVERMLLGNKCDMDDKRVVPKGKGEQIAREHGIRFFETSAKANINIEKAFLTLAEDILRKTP
As to the kind of experiment: crystal structure; X-ray; sitting/hanging-drop vapour diffusion, 20°C; data from beamline X10SA, SLS. To be noted: both partners purified.

B1: Selenomethionine derivative of Mical-3 residues 1841-1990 (domain or fragment, human, UniProt Q7RTP6 1841-1990, looked up)
chain: KQEELKRLHRAQIIQRQLQQVEERQRRLEERGVAVEKALRGEAGMGKKDDPKLMQEWFKLVQEKNAMVRYESELMIFARELELEDRQSRLQQELRERMAVEDHLKTEEELSEEKQILNEMLEVVEQRDSLVALLEEQRLREREEDKDLEA
modifications: selenomethionine in place of methionine
notes: Mical-3, human, whole predicted bMERB domain, residues 1841-1990 (isoform 1); printed elsewhere as 1841-1992; Two copies in the asymmetric unit of the crystal; also called SeMet Mical-3; seleno-L-methionine labelled Mical-3_(1841–1990)
For B1, the binding result in series [1] was “binds”.

B2: bMERB domain (Rab binding domain) of Mical-1, residues 918-1067 (domain or fragment, human, UniProt Q8TDZ2 918-1067, looked up)
chain: KEEEMKRFCKAQTIQRRLNEIEAALRELEAEGVKLELALRRQSSSPEQQKKLWVGQLLQLVDKKNSLVAEEAELMITVQELNLEEKQWQLDQELRGYMNREENLKTAADRQAEDQVLRKLVDLVNQRDALIRFQEERRLSELALGTGAQG
notes: Mical-1, human, bMERB domain, residues 918-1067 (isoform 1); Limits are stated for the crystallised construct; also called Mical-1_(918-1067); RBD of Mical-1
Regarding B2, the binding result (in series [2]; in series [3]; with Rab10 residues 1-175) was “binds” in each case.
